Experimental data reported in the DeepSol protein solubility set.

assay: soluble on expression in E. coli; label from the status in PepcDB or PDB records

| Sequence | soluble on expression in E. coli |
| --- | --- |
| MGSDKIHHHHHHMAGVTAPLLGLQKKSLREQALSALRTAITSGELEPGRHLVETELSDMLQISRGTLREALRQLEQEGLLSAGPRGRLSVRHLDAKEIRDIYSVRAALESLAARTLCELPDRQHVIGSLRAAIGAMDAAAKGSLEDRIESDLEFHRTLCRLTGNETLLHSWESLEGSIRMSIMFAGLEKGVSNMSVDRHHDIVAAIETGDGSLARKTIREHMDTAADNLVA | not soluble |
| MAGDPMRVEVGQIVNTHGIKGEIKVKSNSDFTDVRFQPGQVLTVVHNNNDLEYTVKSHRVHKGLHMLTFEGINNINDIEHLKGSSIYQERDHEDIVLEENEFYYSDIIGCTVFDDQETPIGRVINIFETGANDVWVIKGSKEYLIPYIADVVKEVDVENKKIIITPMEGLLDLEHHHHHH | soluble |
| MGSDKIHHHHHHMTKLTAHPQTEGAFTVASLEFLKQLAQHNSRDWFKTHQDEYENTIRTPALRFIEQIQPHIIAISPRLTAVAKKVGGSLMRPQRDSRFSKDKTPYKTNIGIQFRHFQGKDVHAPGLYLHIAEDGCFIAAGIWHPESKALNAIRTCIDENPNGYKKALQSLTNHGFMMDGDSLTRPPKGFDKHHPMLTELKRKDFIAVKNIPFERLCQRDAVHYCAEQLAHCSQLMAYLCFALELDF | not soluble |
| MGSDKIHHHHHHMVKMNMSDIDISEPLSDLLAPLNNEQREFLMNNYTIQTYKKNETIYCEGETPSHLMCLITGKVKIFKDGVGGRSQIIRMIKQREYFAYRAYFAKEDFVTAAAAFEPSVICLIPMTAITTLVAQNNDLAMFFIRQLSIDLGISDERTVSLTQKHIRGRLAESLIFLKESYGLEEDGSTLSIYLSREDLANLSNMTTSNAIRTLSQFATERLITIDGRKIKIIEEEKLKKISKIG | not soluble |
| MIRVASLIKAMSDTQLQIAQGASPLTGLPGNSAIEQEIKRRLNSGNAFGMIYADLNQFKAFNDTYGFQYGDSIIKLLGKILMQDSLKADDLAFVGHVGGDDFIILTTQNVTKTLGETILLSFQEQLSAMQGAQDLSLALAGLIIYPHTAWTPATLSERIAAVKREAKKAHCNYFLLRELEHHHHHH | not soluble |
| MGCSSSALNKAGDSSRFPSVTSNEHFSTAEESESCFAQPKPHALGRESTVDGNVQRESRPPLQKLKVSAEPTANGVKPLQEQPLAKDVAPGRDATDQSGSTEKTQPGEGLEESGPPQPGGKEDAPAAEGKKKDAGAGTEAESLKGNAEAQPLGPEAKGQPLQAAVEKDSLRAVEVTENPQTAAEMKPLGTTENVLTLQIAGELQPQGTVGKDEQAPLLETISKENESPEILEGSQFVETAEEQQLQATLGKEEQPQLLERIPKENVTPEVLDRSQLVEKPVMNDPFHKTPEGPGNMEQIQPEGIVGSMEHPARNVEAGAYVEMIRNIHTNEEDQRIEGETGEKVETDMENEKVSEGAETKEEETGEVVDLSAAT | soluble |
| ILQTTVDGNSTAISNLKSDISSNGLAITDLQDRVKSLESTASHGLSFSPPLSVADGVVSLDMDPYFCSQRVSLTSYSAEAQLMQFRWMARGTNGSSDTIDMTVNAHCHGRRTDYMMSSTGNLTVTSNVVLLTFDLSDITHIPSDLARLVPSAGFQAASFPVDVSFTRDSATHAYQAYGVYSSSRVFTITFPTGGDGTANIRSLTVRTGIDT | soluble |
| LHIDTEWRSDFKWDRLAEHISDLSGKYVLDIGCGSGYHLWRMRGAGAKFVVGIDPTQLFLMQFNAIKHFIDDSPVHLLPLGVEQLPELKAFDTVFAMGVLYHRRSPIDFLYQLKAQLVKGGELVLETLIVDG | not soluble |
| MSAITITEAAQAYLAELLEKQSTPGIGIRIFITQPGTQYAETCIAYCKPGEEKVEDTAIALKDFTAWIDAVSEPFLEDAVVDYATDRMGGQLTIKAPNAKVPMVNEDSPITERINYYLQTEINPGLASHGGQVSLVDVVEDNIAVLRFGGGCQGCGMVDMTLKDGVEKTLIERIPELKGVRDVTDHSNKENAYY | not soluble |
| MNYKLTLHPGSNPVEEFTSIPHGVTSLDLSLNNLYSISTVELIQAFANTPASVTSLNLSGNSLGFKNSDELVQILAAIPANVTSLNLSGNFLSYKSSDELVKTLAAIPFTITVLDLGWNDFSSKSSSEFKQAFSNLPASITSLNLRGNDLGIKSSDELIQILAAIPANVNSLNLRGNNLASKNCAELAKFLASIPASVTSLDLSANLLGLKSYAELAYIFSSIPNHVVSLNLCLNCLHGPSLENLKLLKDSLKHLQTVYLDYDIVKNMSKEQCKALGAAFPNIQKIILVDKNGKEIHPSHSIPISNLIRELSGKADVPSLLNQCLIFAQKHQTNIEDLNIPDELRESIQTCKPLLEHHHHHH | soluble |
| MTPLRVFRKTTPLVNTIRLSLLPLAGLSFSAFAAQVNIAPGSLDKALNQYAAHSGFTLSVDASLTRGKQSNGLHGDYDVESGLQQLLDGSGLQVKPLGNNSWTLEPAPAPKEDALTVVGDWLGDARENDVFEHAGARDVIRREDFAKTGATTMREVLNRIPGVSAPENNGTGSHDLAMNFGIRGLNPRLASRSTVLMDGIPVPFAPYGQPQLSLAPVSLGNMDAIDVVRGGGAVRYGPQSVGGVVNFVTRAIPQDFGIEAGVEGQLSPTSSQNNPKETHNLMVGGTADNGFGTALLYSGTRGSDWREHSATRIDDLMLKSKYAPDEVHTFNSLLQYYDGEADMPGGLSRADYDADRWQSTRPYDRFWGRRKLASLGYQFQPDSQHKFNIQGFYTQTLRSGYLEQGKRITLSPRNYWVRGIEPRYSQIFMIGPSAHEVGVGYRYLNESTHEMRYYTATSSGQLPSGSSPYDRDTRSGTEAHAWYLDDKIDIGNWTITPGMRFEHIESYQNNAITGTHEEVSYNAPLPALNVLYHLTDSWNLYANTEGSFGTVQYSQIGKAVQSGNVEPEKARTWELGTRYDDGALTAEMGLFLINFNNQYDSNQTNDTVTARGKTRHTGLETQARYDLGTLTPTLDNVSIYASYAYVNAEIREKGDTYGNLVPFSPKHKGTLGVDYKPGNWTFNLNSDFQSSQFADNANTVKESADGSTGRIPGFMLWGARVAYDFGPQMADLNLAFGVKNIFDQDYFIRSYDDNNKGIYAGQPRTLYMQGSLKF | soluble |
| MSLEMKTYIIEKLRETEAIYYIEILLAVESGSRAWGFASPDSDYDIRFIYRHSKDWYLTPWDKDETITFMTEDDLDGSGWDLNKTFHLLLKSNAALLSWFYSPIVYIENKSFTKLFKPLVDQCFSPIAVSFHYLSMSKKYLESCRNDEVKLKSYFYCLRTALSGKWITEKKTVPPVLFSDLLVLADSTIRTKIENLIALKATKGESYFHPNDWELFEFMERQISENEEKAKSLSGSKTDKAQMEKVFREIISEGHHHHHH | not soluble |
| MTKVQKRLFEVADKQYALFQAKLIPNIPQERVIGVRVPVLRKIAREFEKEPECRDFLNTLPHAYYDENMLHSILLSNVKNYEECIAAVEAFLPYVDNWAVCDTLRPKVFGKHKDKLLPRIKDWIASDKTYTCRFGIGMLMMHYLDKDFKPEYLELPQKVDSEEYYVKMMIAWFYATALANQWDATIPYIEEHRLSDWVHKKTIQKACESYRITDEQKAYLKTLR | not soluble |
| EFNDKYPDINIDMELDNRFVDIVNERFDLAIRTGMLPDSSLIARKLVDANWVVCASPKYLAKHGIPKQPIELTKHNCLVYSYQETGAREWAFKAGDKMYQVTVDGNLCTNNSSALRN | not soluble |
| MLYIPQFSIYFCLGYLLLFCKISNAVKQSWEINQELITEANKEHTVFGDMLLTPAQLIRYENSKDSDLSIRGVSIKGSSMNRWSNNIVPYVISPQYSPAQKQILVSSLRYFERVSCFKFVERTTQNDYLFIVPLDGCYSYVGKIGGRQTLSLAADCIADYIIWHEMMHAIGFEHEHQRPDRDSFIRVDYANVIPGQMINFDKLKTSHVEYPDIYDFKSIMHYDGYAFGRVDTARRVRLATMTPLKPGVTLEDNMKFTATDIEKLNRLGQCGARGGQYSNQGVVASTCQDVATAVSCEGNRRRGMCKNPFYKQMMIKSCQKTCRLCSYTRMIDEDDDLTPNTTVKSVKCEDKHPRCDIYSHNGFCTLPFYDDVRYQLCAKTCNLC | not soluble |
| MIQKGCTPIEEGSDSEPQAETVPEEADYEAVPVEAYGLAMLRGMGWKPGKGIGNTFSQVVKPRVNSIRPKGLGLGANRMEAQDLASVGSHHPPRPDGDRENDKEGQPQGLMHGRAVVVLSGPYRGLYGKVEGLDPDNVRAMVRLAVGNRIVTVSEYCLRPVSQQEFDSHTSKPGHVSQTSTEQQNRATGTASSLKAAQNQEDSKRRQKGSEKKRKHSPDRQDGPVPKTEKAAPRNKHWLHRDLRVRFIDKLHKSGRYYNTKMTIEDVLSPDTCVCRTDEGRVLEDVREDMLETLIPKGEGHRVMVVLGPHAGKVGLLRSRDRAQSHALVQLRRENQVVELHYNAICQYMGPGDSDED | soluble |
